Two molecules from US20230087600A1 can be followed below.

This experiment has as its target T1, mouse IL-10 receptor (IL-10R) on T cells and B cells of C57BL/6 mouse splenocytes (mouse) (UniProt Q61727).
T1 sequence (looked up) 1: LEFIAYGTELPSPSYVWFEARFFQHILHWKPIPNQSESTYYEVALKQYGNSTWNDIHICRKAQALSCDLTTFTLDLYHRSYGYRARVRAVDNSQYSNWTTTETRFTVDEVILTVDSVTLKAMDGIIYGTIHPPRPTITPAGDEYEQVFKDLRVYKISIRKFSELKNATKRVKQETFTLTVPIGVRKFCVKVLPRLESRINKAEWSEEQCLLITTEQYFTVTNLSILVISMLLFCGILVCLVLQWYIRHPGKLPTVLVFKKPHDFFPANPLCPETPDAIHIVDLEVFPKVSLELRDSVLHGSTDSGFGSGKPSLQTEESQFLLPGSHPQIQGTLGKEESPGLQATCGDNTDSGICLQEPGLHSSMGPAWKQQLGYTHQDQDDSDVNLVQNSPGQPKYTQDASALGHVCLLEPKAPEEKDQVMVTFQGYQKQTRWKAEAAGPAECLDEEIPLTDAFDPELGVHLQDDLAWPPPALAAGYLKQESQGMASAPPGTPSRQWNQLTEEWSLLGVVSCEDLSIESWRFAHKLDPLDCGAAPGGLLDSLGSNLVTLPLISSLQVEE
T1 sequence (looked up) 2: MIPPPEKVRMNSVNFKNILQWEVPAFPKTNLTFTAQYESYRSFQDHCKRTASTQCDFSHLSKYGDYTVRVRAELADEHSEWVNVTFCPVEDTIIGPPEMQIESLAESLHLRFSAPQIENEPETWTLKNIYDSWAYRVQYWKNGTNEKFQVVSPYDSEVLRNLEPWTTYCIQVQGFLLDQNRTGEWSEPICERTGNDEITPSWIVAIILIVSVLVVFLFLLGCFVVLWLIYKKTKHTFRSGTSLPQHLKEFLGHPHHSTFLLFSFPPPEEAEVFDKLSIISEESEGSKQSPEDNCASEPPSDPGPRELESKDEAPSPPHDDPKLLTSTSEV
Briefly: cell-based or functional assay.

B1: mouse IL-10 (ligand, UniProt P18893 19-178, looked up)
chain: SRGQYSREDNNCTHFPVGQSHMLLELRTAFSQVKTFFQTKDQLDNILLTDSLMQDFKGYLGCQALSEMIQFYLVEVMPQAEKHGPEIKEHLNSLGEKLKTLRMRLRRCHRFLPCENKSKAVEQVKSDFNKLQDQGVYKAMNEFDIFINCIEAYMMIKMKS
Take B1: the STAT3 phosphorylation (pY705), flow cytometry, B cells of C57BL/6 mouse splenocytes (CD19 + B cells), EC50 was determined as 55.3 pM and the STAT3 phosphorylation (pY705), flow cytometry, CD3+ T cells of C57BL/6 mouse splenocytes, EC50 is 91.4 pM.

B2: 5KPEG-mIL-10 (ligand, mouse, UniProt P18893 19-178, looked up)
chain: B1 chain
modifications: conjugated to 5 kD PEG; site of attachment not stated
B2: the STAT3 phosphorylation (pY705), flow cytometry, B cells of C57BL/6 mouse splenocytes (CD19 + B cells), EC50 was 120 pM and the STAT3 phosphorylation (pY705), flow cytometry, CD3+ T cells of C57BL/6 mouse splenocytes, EC50 is 390 pM.
